The chains are these.
B1: Fab 3A2 (Fab, V domains shown)
VH: EVQLVESGGGLVQPGGSLRLSCAASGFNLSSSSMHWVRQAPGKGLEWVASIYPSYSYTYYADSVKGRFTISADTSKNTAYLQMNSLRAEDTAVYYCARVKLQKDKSHQWIRNLVATPYGRYVMDYWGQGTLVTVSS
VL: DIQMTQSPSSLSASVGDRVTITCRASQSVSSAVAWYQQKPGKAPKLLIYSASSLYSGVPSRFSGSRSGTDFTLTISSLQPEDFATYYCQQYGYPITFGQGTKVEIKR
B2: Fab R2C14 (Fab, V domains shown)
VH: EVQLVESGGGLVQPGGSLRLSCAASGFNIYSSSIHWVRQAPGKGLEWVASIYSYSGYTYYADSVKGRFTISADTSKNTAYLQMNSLRAEDTAVYYCARVSNRYNRSSASIAGLQLFRPYGMDYWGQGTLVTVSS
VL: DIQMTQSPSSLSASVGDRVTITCRASQSVSSAVAWYQQKPGKAPKLLIYSASSLYSGVPSRFSGSRSGTDFTLTISSLQPEDFATYYCQQSSYSLITFGQGTKVEIKR
B3: Fab R3C8 (Fab, V domains shown)
VH: EVQLVESGGGLVQPGGSLRLSCAASGFNFSSSSIHWVRQAPGKGLEWVASIYPSYSYTYYADSVKGRFTISADTSKNTAYLQMNSLRAEDTAVYYCARHCLLRSRRCEMSTKTRELNVYRYAMDYWGQGTLVTVSS
VL: DIQMTQSPSSLSASVGDRVTITCRASQSVSSAVAWYQQKPGKAPKLLIYSASSLYSGVPSRFSGSRSGTDFTLTISSLQPEDFATYYCQQWPVGSSYPITFGQGTKVEIKR

Bounds are passed on as bounds.

In this test the target is matrix metalloproteinase-14 catalytic domain (cdMMP-14) (UniProt P50281 114-287, biotinylated with EZ-Link Sulfo-NHS-LC-Biotin for ELISA; amine-coupled to CM5 chip for SPR). The experiment in a line: ELISA.
As to B1, the half-maximal effective concentration (EC50) was determined as 4 nM.
The result for B2 reads above 1000 nM.
The result for B3 reads above 1000 nM.
